Measurements published in patent publication US20250236667A1, “ANTIBODIES TO MUTANT CALRETICULIN AND USES THEREOF” (CENTRAL ADELAIDE LOCAL HEALTH NETWORK INC, priority 2021, published 2025).

Columns and labels:
Type in all cases: cell-based, human
[1] = test system: TF-1 TpoR CALR^del61 and TF-1 TpoR CALR^del52 cells; assay: Western blot of caspase 3 cleavage; details: after 4D7 treatment, 20 μg/mL
Protocol: A. Cell extracts blotted for phospho-STAT5, total STAT5, phospho-ERK, total ERK and actin from TF-1 TpoR cells after incubation with 10 or 20 μg/mL 4D7 or IgG for 4 or 8 hours, in presence of TPO. The last line indicates TPO withdrawal. B. Similar experiment using TPO-independent TF-1 TpoR CALR^del61 cells. C. Similar experiment using TPO-independent TF-1 TpoR CALR^del52 cells at 8 hours. D. Fraction of apoptotic sub-Go population of TF-1 TpoR CALR^del61 cells after 48 hours of 4D7 or IgG treatment (n=3). E. Western blot showing caspase 3 cleavage occurring within 24 hours of TPO withdrawal in TPO dependent TF-1 TpoR cells. An increase in cleaved caspase 3 is observed after 48 hours of treatment with 20 μg/mL 4D7 in TF-1 TpoR CALR^del61 and TF-1 TpoR CALR^del52 cells. F. Western blot of TpoR immunoprecipitation under non-reducing conditions showing associated CALR 50 kDa monomers and 100 kDa dimers (arrowheads) present only in TF-1 TpoR CALR^del61 disrupted by 8 hour treatment with 20 μg/mL 4D7 but not PBS or 20 μg/mL IgG. CALR monomers & dimers are detectable by polyclonal anti-wild type CALR or anti-mutant CALR monoclonal antibodies. Arrowheads, detected mutant CALR protein: asterisk, non-specific bands. G. Proposed model for the mechanism of action of 4D7 on mutant CALR. […]

[2] = test system: TpoR in TF-1 TpoR CALR^del61; assay: TpoR tyrosine phosphorylation, immunoprecipitation and Western blot; details: 8 hours of 20 μg/mL
Protocol: A. Cell extracts blotted for phospho-STAT1, total STAT1, phospho-STAT3, total STAT3 and actin from TF-1 TpoR cells after incubation with 10 or 20 μg/mL 4D7 or IgG for 4 or 8 hours as indicated. B. Similar experiment using TPO-independent TF-1 TpoR CALR^del61 cells at 4 and 8 hours. C. Similar experiment shown using TPO-independent TF-1 TpoR CALR^del52 cells, 8 hours. D. Flow cytometry analysis for cell cycle distribution of TF-1 TpoR CALR^del61 cells exposed to 20 μg/mL IgG or 4D7 for 48 hours. Cells were harvested and fixed and stained with propidium iodide and their DNA contents were analysed. Results from one representative experiment shown. Percentages of cells in Sub Go, G1. S and G2/M cycle indicated. E. Western blot showing specific co-immunoprecipitation of mutant CALR^del61 cells with TpoR anti-FLAG antibody under reducing conditions detected by total and mutant specific CALR antibodies. Arrowheads represent detected CALR protein. F. Western blot showing decreased TpoR phosphorylation in a TpoR immunoprecipitated after 8 hours of 20 μg/mL 4D7 treatment compared to PBS or IgG control in TF-1 TpoR CALR^del61. […]

[3] = test system: primary CD34+ cells from JAK2 V617F myelofibrosis samples; assay: TPO-independent megakaryocyte differentiation in liquid culture; details: 3 out of 3 JAK2 V617F myelofibrosis samples
Excerpt: (§1) Patient samples were collected with informed consent from the South Australian Cancer Research Biobank (SACRB: Adelaide, Australia). Primary CD34+ stem/progenitor cells from peripheral blood samples from patients with JAK2^V617F or CALR mutant myelofibrosis were purified by flow cytometry using CD34-APC antibody, anti-human CD45RA Brilliant Violet 605, anti-CD90 FITC, anti-human CD123-PE, anti-human CD38 PE-Cy7, or with CD34-APC antibody, anti-human CD3 FITC, anti-human CD19-PE (clone H1B19) and anti-human CD14 PE-Cy7.
(§2) For megakaryocyte differentiation assays, CD34+ cells derived from cord blood or from patient peripheral blood mononuclear fractions were plated in Megacult (MegaCult™-C Collagen and Medium with Lipids) with added IL-3 and IL-6 (10 ng/ml) in the presence or absence of 50 ng/mL TPO. Cells were plated at an initial density of 1800 cells/well and cultured for 12 days at 37° C. and 5% CO2. Primary PMF CD34+ cells were cultured in StemCell Pro supplemented with human recombinant SCF (25 ng/mL), IL-6 and IL-9 (10 ng/ml) to allow differentiation into megakaryocytes. CD34+cord blood cells were cultured in 50 ng/mL SCF, 50 ng/ml TPO, 20 ng/ml IL-6 and 20 ng/ml IL-9. Both IgG and 4D7 were added at 20 μg/mL. All cytokines are from Preprotech. Culture media was replenished every 3 days and cells were assessed for megakaryocyte differentiation on day 12 using anti-human CD41/61 PE-Cy7 (Clone A2A9/6) and CountBright beads (Thermo Fisher) to enumerate cell numbers. CD34+obtained from UCB were plated in MethoCult containing cytokines (H4434). Cells were seeded at approximately 100 cells per well and were cultured in the presence of 20 μg/mL 4D7 or control IgG antibody and scored for colony and blast forming units at 12-14 days.

[4] = test system: primary CD34+ cells from patients with CALR mutant myelofibrosis; assay: as above
Excerpt: as §1, §2

B1: 4D7: rat monoclonal IgG2a antibody against the mutant CALR neoepitope; VH SEQ ID NO: 5, VL SEQ ID NO: 7 (antibody, listed as Rattus rattus, V domains shown)
VH: QVQLQQSGAELAKPGSSVKISCKASGYTFTNYDMSWIKQRPGQALEWIGAINPGNGVTDYNEKFRGKATLTVDKSSSTAFMQLSSLTPEDTAVYHCAREYRDNYGYFDYWGQGVMVTVSS
VL: DIVLTQTPVSLSVTLGDQASISCRSSQSLEYSDGYTYLDWFLQKPGQSPQLLIYEVSSRFSGVPDRFIGRGSGTDFTLKISRVEPEDLGVYYCFQATHDPFTFGSGTKLEIK
- time at which caspase 3 cleavage occurred [1]: ≤ 24 h
- time at which caspase 3 cleavage peaked [1]: 48 h
- TpoR tyrosine phosphorylation [2]: inhibition
- inhibition of CD41+CD61+ megakaryocyte progenitors [3]: No significant inhibition
- mean decrease of CD41+ cells across CALR mutant samples ([4]; 20 μg/mL, day 12, normalised to IgG): 55%
- inhibition of CD41+ megakaryocytes compared to IgG control ([4]; additional samples in 2 independent patients (Graz), including type 2 CALR (5 base pair insertion)): evidence of inhibition
- inhibition of TPO-independent growth of CD41+CD61+ megakaryocyte progenitors ([4]; four out of 5 mutant CALR MF patient samples, 20 μg/mL, 12 days, vs IgG): at least 50%
- inhibition of CD41+CD61+ megakaryocyte progenitors ([4]; patient sample with a 34 base pair deletion): weaker inhibition
